Experiments:
[1] = molecular target: ovine OX40 (OaOX40), full length, C-terminally V5 tagged, on transfected HEK293 cells (Ovis aries); assay: immunostaining of cells or tissue; HEK293 cells transfected with the V5-tagged receptor incubated with conditioned media from adenovirus-infected cells for 15 min, then fixed; ligand detected with anti-Fc antibody, receptor with anti-V5; confocal microscopy, pixel colocalisation in 25-40 cells
[2] = molecular target: ovine OX40 (OaOX40), full length, C-terminally V5 tagged, on transfected HEK293 cells (Ovis aries); assay: immunostaining of cells or tissue; HEK293 cells transfected with the V5-tagged receptor incubated with 10 μg of purified ligand for 15 min at 4 °C, then fixed; ligand detected with anti-ovine Fc antibody, receptor with anti-V5; confocal microscopy, pixel colocalisation in 25-40 cells
[3] = molecular target: ovine CD27 (OaCD27), full length, C-terminally V5 tagged, on transfected HEK293 cells (Ovis aries); assay: as above
[4] = molecular target: ovine CD27 (OaCD27), full length, C-terminally V5 tagged, on transfected HEK293 cells (Ovis aries); assay: immunostaining of cells or tissue; HEK293 cells transfected with the V5-tagged receptor incubated with conditioned media from adenovirus-infected cells for 15 min, then fixed; ligand detected with anti-Fc antibody, receptor with anti-V5; confocal microscopy, pixel colocalisation in 25-40 cells

Question: How did the percentage of ligand signal colocalising with its receptor [1] turn out when “secreted rOaOX40L expressed from recombinant adenovirus Ad5-OaOX40L (same construct as the baculovirus protein) (Fc fusion)” was run?
Answer: Its percentage of ligand signal colocalising with its receptor is 60.4%.

Question: How did the percentage of ligand sharing pixel localisation with its receptor [2] turn out when “purified recombinant ovine OX40L (rOaOX40L), baculovirus-expressed: ovine IgG1 Fc - isoleucine zipper - predicted extracellular domain of ovine OX40L (Fc fusion)” was run?
Answer: Its percentage of ligand sharing pixel localisation with its receptor is 59.3%.

Question: How did the percentage of ligand sharing pixel localisation with its receptor [3] turn out when “purified recombinant ovine CD70 (rOaCD70), baculovirus-expressed: ovine IgG1 Fc - isoleucine zipper - predicted extracellular domain of ovine CD70 (Fc fusion)” was run?
Answer: Its percentage of ligand sharing pixel localisation with its receptor is 72.8%.

Question: How did the percentage of ligand signal colocalising with its receptor [4] turn out when “secreted rOaCD70 expressed from recombinant adenovirus Ad5-OaCD70 (same construct as the baculovirus protein) (Fc fusion)” was run?
Answer: The percentage of ligand signal colocalising with its receptor was 73.5%.

From paper PMC7350415
